Each block holds one molecule with its values, some of them ahead of it.
Experiments:
[1] = molecular target: T1, human recombinant Transglutaminase 2 (TG2) (human, UniProt P21980 1-687, limits assumed); test: told in words; NTF release from HEK 293T cells expressing mouse GPR56
T1 construct: also called recombinant TG2; recombinant TGM2
T1 sequence: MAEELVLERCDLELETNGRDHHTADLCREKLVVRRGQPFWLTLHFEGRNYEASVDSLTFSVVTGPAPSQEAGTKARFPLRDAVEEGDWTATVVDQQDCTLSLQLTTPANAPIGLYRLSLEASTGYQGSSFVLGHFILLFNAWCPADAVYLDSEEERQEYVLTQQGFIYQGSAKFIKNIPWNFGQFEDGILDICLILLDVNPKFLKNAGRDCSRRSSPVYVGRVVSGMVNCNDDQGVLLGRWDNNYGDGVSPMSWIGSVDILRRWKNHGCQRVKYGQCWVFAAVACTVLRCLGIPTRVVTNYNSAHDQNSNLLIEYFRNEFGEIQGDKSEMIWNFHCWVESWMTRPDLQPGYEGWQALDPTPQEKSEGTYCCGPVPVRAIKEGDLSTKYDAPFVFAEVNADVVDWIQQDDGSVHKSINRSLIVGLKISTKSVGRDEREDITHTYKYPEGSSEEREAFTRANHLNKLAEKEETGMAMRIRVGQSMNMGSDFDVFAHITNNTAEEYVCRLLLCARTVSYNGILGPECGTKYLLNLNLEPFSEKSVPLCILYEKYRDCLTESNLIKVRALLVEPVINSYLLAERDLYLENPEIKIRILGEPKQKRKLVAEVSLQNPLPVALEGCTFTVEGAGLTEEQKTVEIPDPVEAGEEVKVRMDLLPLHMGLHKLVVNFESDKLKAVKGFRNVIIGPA
Excerpt: HEK 293T cells were transiently transfected with mouse Gpr56 cDNA. […] The conditioned media were harvested, filtered, and concentrated as previously described. Equal volumes of the concentrated media were used for Western blot (Luo et al., PLOS One 9, e100043, 2014), while the cell pellets were used for GTP-Rho pull-down assay.

GPR56^N = molecular target: T2, GPR56^N (Mus musculus, UniProt Q8K209); test: In vitro biotinylation/proteomics pull-down from mixed glial cell lysate with mass spectrometry; conditions: peptide sequences specific for binding to GPR56^N
T2 construct: Using the soluble N-terminal fragment of GPR56 (GPR56^N); made in house
Excerpt: To identify the ligand of GPR56 in OPCs, an in vitro biotinylation/proteomics approach was employed using single-step capture on streptavidin beads to purify the binding partner(s) of GPR56 (FIGS. 2A-2B). Proteins with more than five identified tryptic peptides in the Mass Spectrometry (MS) output from three independent experiments are listed at Table 1.
(§1) GPR56^N and GPR56^Ndel fusions proteins with either mFc or hFc tag were generated as previously described (Luo et al. Proc Natl Acad Sci USA 108, 12925-12930, 2011). BirA enzyme was used to in vitro biotinylate GPR56^N-mFc-biotag protein as previously described (De Laurenzi and Melino Mol Cell Biol 21, 148-155, 2001). Mixed glial cell lysate was incubated with biotinylated GPR56^N protein in lysis buffer [20 mM Hepes (pH 7.3), 150 mM NaCl, and 5 mM MgCl2] with protein inhibitor mixture (Roche Molecular Biochemicals) and 1% Brij 96 (Fluka). Streptavidin beads (Sigma) were used to affinity purify immunocomplexes. GPR56-associated proteins were eluted in 2×SDS loading buffer, subjected to SDS/PAGE. The whole lane was used for MS at the Taplin Biological Mass Spectrometry at Havard Medical School. MS data were searched against the mouse International Protein Index (IPI mouse 339) database using the protein identification software Mascot (v2.2.04, Matrix Sciences) (Luo et al. Proc Natl Acad Sci USA 108, 12925-12930, 2011).
as §1, with “al.,” for “al.”, “(Stacey et al., J” for “(De Laurenzi and Melino Mol Cell”, “Chem 277, 29283-29293, 2002).” for “21, 148-155, 2001).”, “(20” for “[20”, “[pH 7.3],” for “(pH 7.3),”, “MgCl2)” for “MgCl2]”

[2] = molecular target: T3, Transglutaminase 2 (Tgm2), mouse, endogenous (mixed glial cell lysate / microglia-derived) (mouse, UniProt P21981 2-686); test: figure legend of the summary model
T3 construct: Endogenous protein captured from lysate, or present in mouse tissue; also called TG2; microglial TG2
T3 sequence (looked up): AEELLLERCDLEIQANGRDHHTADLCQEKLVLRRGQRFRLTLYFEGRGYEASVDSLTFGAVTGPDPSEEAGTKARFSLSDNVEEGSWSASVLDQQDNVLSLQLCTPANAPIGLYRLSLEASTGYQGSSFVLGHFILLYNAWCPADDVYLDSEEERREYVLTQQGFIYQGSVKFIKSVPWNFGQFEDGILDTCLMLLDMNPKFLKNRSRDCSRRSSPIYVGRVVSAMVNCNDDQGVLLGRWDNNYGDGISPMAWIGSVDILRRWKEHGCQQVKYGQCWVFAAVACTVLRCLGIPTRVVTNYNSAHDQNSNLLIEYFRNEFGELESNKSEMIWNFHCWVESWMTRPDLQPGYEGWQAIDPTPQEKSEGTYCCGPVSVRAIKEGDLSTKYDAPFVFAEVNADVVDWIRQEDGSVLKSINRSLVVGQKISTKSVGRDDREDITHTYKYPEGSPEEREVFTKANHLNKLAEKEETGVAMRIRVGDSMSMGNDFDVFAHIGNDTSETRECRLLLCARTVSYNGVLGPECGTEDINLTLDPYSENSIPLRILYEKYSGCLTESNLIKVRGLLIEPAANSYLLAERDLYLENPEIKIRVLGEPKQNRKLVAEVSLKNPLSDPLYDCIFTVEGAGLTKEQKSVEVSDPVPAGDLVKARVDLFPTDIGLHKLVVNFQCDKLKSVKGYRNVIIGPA

GPR56 NTF (GPR56^N) [3] = molecular target: GPR56 NTF (GPR56^N) (Mus musculus, UniProt Q8K209, DEL93-142); conditions: aa 93-142 deleted; cited from earlier work
GPR56 NTF (GPR56^N) (Mus musculus, UniProt Q8K209, DEL93-142), sequence (Q8K209 with tags, fused parts or gaps DEL93-142): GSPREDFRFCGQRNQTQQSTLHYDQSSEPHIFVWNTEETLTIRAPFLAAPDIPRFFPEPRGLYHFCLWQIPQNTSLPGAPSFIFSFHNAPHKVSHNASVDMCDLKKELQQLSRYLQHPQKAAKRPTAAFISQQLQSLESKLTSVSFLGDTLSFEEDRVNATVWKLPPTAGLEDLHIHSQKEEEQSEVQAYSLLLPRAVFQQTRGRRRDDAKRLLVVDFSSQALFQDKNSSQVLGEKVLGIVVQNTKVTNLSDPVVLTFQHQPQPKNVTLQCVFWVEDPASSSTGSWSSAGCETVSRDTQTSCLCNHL

GPR56 NTF (GPR56^N) [4] = molecular target: GPR56 NTF (GPR56^N) (Mus musculus, UniProt Q8K209); conditions: between amino acids 27-160; cited from earlier work

binding result [1]: binds
Peptide Number (Exp1) (GPR56^N; experiment 1): 12
Peptide Number (Exp2) (GPR56^N; experiment 2): 11
Peptide Number (Exp3) (GPR56^N; experiment 3): 9
binding result [2]: binds
B1: GPR56 (ADGRG1), mouse, on cells (oligodendrocyte precursor cells; HEK 293T cells transfected with mouse Gpr56 cDNA) (receptor, UniProt Q8K209 26-687, looked up)
chain: GSPREDFRFCGQRNQTQQSTLHYDQSSEPHIFVWNTEETLTIRAPFLAAPDIPRFFPEPRGLYHFCLYWSRHTGRLHLRYGKHDYLLSSQASRLLCFQKQEQSLKQGAPLIATSVSSWQIPQNTSLPGAPSFIFSFHNAPHKVSHNASVDMCDLKKELQQLSRYLQHPQKAAKRPTAAFISQQLQSLESKLTSVSFLGDTLSFEEDRVNATVWKLPPTAGLEDLHIHSQKEEEQSEVQAYSLLLPRAVFQQTRGRRRDDAKRLLVVDFSSQALFQDKNSSQVLGEKVLGIVVQNTKVTNLSDPVVLTFQHQPQPKNVTLQCVFWVEDPASSSTGSWSSAGCETVSRDTQTSCLCNHLTYFAVLMVSSTEVEATHKHYLTLLSYVGCVISALACVFTIAAYLCSRRKSRDYTIKVHMNLLSAVFLLDVSFLLSEPVALTGSEAACRTSAMFLHFSLLACLSWMGLEGYNLYRLVVEVFGTYVPGYLLKLSIVGWGFPVFLVTLVALVDVNNYGPIILAVRRTPERVTYPSMCWIRDSLVSYVTNLGLFSLVFLFNLAMLATMVVQILRLRPHSQNWPHVLTLLGLSLVLGLPWALVFFSFASGTFQLVILYLFSIITSFQGFLIFLWYWSMRFQAQGGPSPLKNNSDSAKLPISSGSTSSSRI
notes: whole, on cells; not used here; also called OPC GPR56; OPC-GPR56

B2: Col III: collagen III (gene symbol Col3a1), ligand for GPR56 in the developing cerebral cortex (protein, UniProt P08121 155-1219, looked up)
Collagen alpha-1(III) chain: QFDSYDVKSGVGGMGGYPGPAGPPGPPGPPGSSGHPGSPGSPGYQGPPGEPGQAGPAGPPGPPGALGPAGPAGKDGESGRPGRPGERGLPGPPGIKGPAGMPGFPGMKGHRGFDGRNGEKGETGAPGLKGENGLPGDNGAPGPMGPRGAPGERGRPGLPGAAGARGNDGARGSDGQPGPPGPPGTAGFPGSPGAKGEVGPAGSPGSNGSPGQRGEPGPQGHAGAQGPPGPPGNNGSPGGKGEMGPAGIPGAPGLIGARGPPGPAGTNGIPGTRGPSGEPGKNGAKGEPGARGERGEAGSPGIPGPKGEDGKDGSPGEPGANGLPGAAGERGPSGFRGPAGPNGIPGEKGPPGERGGPGPAGPRGVAGEPGRDGTPGGPGIRGMPGSPGGPGNDGKPGPPGSQGESGRPGPPGPSGPRGQPGVMGFPGPKGNDGAPGKNGERGGPGGPGLPGPAGKNGETGPQGPPGPTGPAGDKGDSGPPGPQGLQGIPGTGGPPGENGKPGEPGPKGEVGAPGAPGGKGDSGAPGERGPPGTAGIPGARGGAGPPGPEGGKGPAGPPGPPGASGSPGLQGMPGERGGPGSPGPKGEKGEPGGAGADGVPGKDGPRGPAGPIGPPGPAGQPGDKGEGGSPGLPGIAGPRGGPGERGEHGPPGPAGFPGAPGQNGEPGAKGERGAPGEKGEGGPPGPAGPTGSSGPAGPPGPQGVKGERGSPGGPGTAGFPGGRGLPGPPGNNGNPGPPGPSGAPGKDGPPGPAGNSGSPGNPGIAGPKGDAGQPGEKGPPGAQGPPGSPGPLGIAGLTGARGLAGPPGMPGPRGSPGPQGIKGESGKPGASGHNGERGPPGPQGLPGQPGTAGEPGRDGNPGSDGQPGRDGSPGGKGDRGENGSPGAPGAPGHPGPPGPVGPSGKSGDRGETGPAGPSGAPGPAGARGAPGPQGPRGDKGETGERGSNGIKGHRGFPGNPGPPGSPGAAGHQGAIGSPGPAGPRGPVGPHGPPGKDGTSGHPGPIGPPGPRGNRGERGSEGSPGHPGQPGPPGPPGAPGPCCGGGAAAIAGVGGEKSGGFSPYYG
Binding to GPR56^Ndel (GPR56 NTF (GPR56^N) [3]): abrogated Col III binding
Binding to GPR56 NTF (GPR56^N) (GPR56 NTF (GPR56^N) [4]): binds

Source: patent US12358959B2, “Compositions and methods for oligodendrocyte development” (CHILDREN'S MEDICAL CENTER CORPORATION, priority 2016, dated 2025)
